Results from patent US8580321B2, “Method for reducing the effects of chemotherapy using flagellin related polypeptides” (priority 2003, dated 2013).

Test system: NF-κB
Experiment: EMSA of NF-κB translocation / DNA binding in A549 cells
Settings: for NF-κB Stimulation / level of NF-κB translocation, fragments versus flagellin: A549 cells; for NF-κB Stimulation: 1 μg/ml, 45 min, EMSA of whole cell extracts; for level of NF-κB translocation, fragments versus flagellin / inducing NF-κB translocation: EMSA; for inducing NF-κB translocation: nuclear extracts of treated A549 lung cancer cells

Molecule: AA′n1-129: flagellin variant N-terminal 1-129, C-terminal 402-505, SEQ ID NO: 42
- NF-κB Stimulation: Yes

Molecule: AA′n54-129: flagellin variant N-terminal 54-129, C-terminal 402-505, SEQ ID NO: 44
- NF-κB Stimulation: Yes

Molecule: AA′n1-70: flagellin variant N-terminal 1-70, C-terminal 402-505, SEQ ID NO: 54
- NF-κB Stimulation: No

Molecule: CA′: flagellin fragment (56-100)-Linker-(402-505), SEQ ID NO: 16
- NF-κB Stimulation: No

Molecule: GST-A′: GST-Linker-(402-505), SEQ ID NO: 26
- NF-κB Stimulation: No

Molecule: BA′: flagellin fragment (56-177)-Linker-(402-505), SEQ ID NO: 12
- NF-κB Stimulation: Yes
- level of NF-κB translocation, fragments versus flagellin: comparable
- inducing NF-κB translocation: capable of inducing NF-κB translocation

B1: AB′: flagellin fragment (1-177)-Linker-(402-450), SEQ ID NO: 10 (protein)
chain: MRGSHHHHHHGMASMTGGQQMGRDLYDDDDKDPMAQVINTNSLSLLTQNNLNKSQSSLSSAIERLSSGLRINSAKDDAAGQAIANRFTSNIKGLTQASRNANDGISIAQTTEGALNEINNNLQRVRELSVQATNGTNSDSDLKSIQDEIQQRLEEIDRVSNQTQFNGVKVLSQDNQMKIQVGANDGETITIDLQKIDVKSLGLDGFNVNSPGISGGGGGILDSMGTLINEDAAAAKKSTANPLASIDSALSKVDAVRSSLGAIQNRFDSAITNL
modifications: Salmonella dublin
- NF-κB Stimulation: Yes
- level of NF-κB translocation, fragments versus flagellin: comparable
- inducing NF-κB translocation: capable of inducing NF-κB translocation

B2: CB′: flagellin fragment (56-100)-Linker-(402-450), SEQ ID NO: 18 (protein)
chain: MRGSHHHHHHGMASMTGGQQMGRDLYDDDDKDPFTSNIKGLTQASRNANDGISIAQTTEGALNEINNNLQRVRELSVQATSPGISGGGGGILDSMGTLINEDAAAAKKSTANPLASIDSALSKVDAVRSSLGAIQNRFDSAITNL
modifications: Salmonella dublin
- NF-κB Stimulation: No

B3: AB′n1-170: flagellin variant N-terminal 1-170, C-terminal 402-450, SEQ ID NO: 38 (protein)
chain: MRGSHHHHHHGMASMTGGQQMGRDLYDDDDKDPMAQVINTNSLSLLTQNNLNKSQSSLSSAIERLSSGLRINSAKDDAAGQAIANRFTSNIKGLTQASRNANDGISIAQTTEGALNEINNNLQRVRELSVQATNGTNSDSDLKSIQDEIQQRLEEIDRVSNQTQFNGVKVLSQDNQMKIQVGANDGETITIDLQKIDVKSLGLIPGISGGGGGILDSMGTLINEDAAAAKKSTANPLASIDSALSKVDAVRSSLGAIQNRFDSAITNL
modifications: Salmonella dublin
- NF-κB Stimulation: Yes

B4: AB′n1-163: flagellin variant N-terminal 1-163, C-terminal 402-450, SEQ ID NO: 40 (protein)
chain: MRGSHHHHHHGMASMTGGQQMGRDLYDDDDKDPMAQVINTNSLSLLTQNNLNKSQSSLSSAIERLSSGLRINSAKDDAAGQAIANRFTSNIKGLTQASRNANDGISIAQTTEGALNEINNNLQRVRELSVQATNGTNSDSDLKSIQDEIQQRLEEIDRVSNQTQFNGVKVLSQDNQMKIQVGANDGETITIDLQKIIPGISGGGGGILDSMGTLINEDAAAAKKSTANPLASIDSALSKVDAVRSSLGAIQNRFDSAITNL
modifications: Salmonella dublin
- NF-κB Stimulation: Yes

B5: AB′n1-70: flagellin variant N-terminal 1-70, C-terminal 402-450, SEQ ID NO: 56 (protein)
chain: MRGSHHHHHHGMASMTGGQQMGRDLYDDDDKDPMAQVINTNSLSLLTQNNLNKSQSSLSSAIERLSSGLRINSAKDDAAGQAIANRFTSNIKGLTQASRNANDIPGISGGGGGILDSMGTLINEDAAAAKKSTANPLASIDSALSKVDAVRSSLGAIQNRFDSAITNL
modifications: Salmonella dublin
- NF-κB Stimulation: No

B6: A: flagellin N-terminus (1-177), SEQ ID NO: 20 (protein)
chain: MRGSHHHHHHGMASMTGGQQMGRDLYDDDDKDPMAQVINTNSLSLLTQNNLNKSQSSLSSAIERLSSGLRINSAKDDAAGQAIANRFTSNIKGLTQASRNANDGISIAQTTEGALNEINNNLQRVRELSVQATNGTNSDSDLKSIQDEIQQRLEEIDRVSNQTQFNGVKVLSQDNQMKIQVGANDGETITIDLQKIDVKSLGLDGFNVNSPG
modifications: Salmonella dublin
- NF-κB Stimulation: No

B7: B: flagellin N-terminus (56-177), SEQ ID NO: 22 (protein)
chain: MRGSHHHHHHGMASMTGGQQMGRDLYDDDDKDPFTSNIKGLTQASRNANDGISIAQTTEGALNEINNNLQRVRELSVQATNGTNSDSDLKSIQDEIQQRLEEIDRVSNQTQFNGVKVLSQDNQMKIQVGANDGETITIDLQKIDVKSLGLDGFNVNSPG
modifications: Salmonella dublin
- NF-κB Stimulation: No

B8: C: flagellin N-terminus (56-100), SEQ ID NO: 24 (protein)
chain: MRGSHHHHHHGMASMTGGQQMGRDLYDDDDKDPFTSNIKGLTQASRNANDGISIAQTTEGALNEINNNLQRVRELSVQATSPG
modifications: Salmonella dublin
- NF-κB Stimulation: No
